The source of these data is patent US20240301049A1 (Ablynx, published 2024).

“And” between values parts separate entries of the source, which are not always exact repeats. Equal entries are not always repeated.

What is called EC50 is the concentration needed to bring the measured effect to its halfway point.

The target of one assay is T1, human RANKL (human, UniProt O14788 140-317, limits assumed).
T1 construct: also called hRANKL
T1 sequence (looked up): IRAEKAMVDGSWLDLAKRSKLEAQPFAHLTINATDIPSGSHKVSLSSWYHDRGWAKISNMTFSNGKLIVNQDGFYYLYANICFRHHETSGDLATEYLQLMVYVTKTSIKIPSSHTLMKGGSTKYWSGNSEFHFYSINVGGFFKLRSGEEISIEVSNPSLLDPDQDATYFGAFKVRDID
As to the kind of experiment: SPR (ProteOn XPR36), target immobilized.

The next assay concerns the target T2, human LIGHT (human, UniProt O43557 74-240, limits assumed).
T2 construct: also called hLIGHT
Briefly: SPR (ProteOn XPR36), target immobilized.

A further assay has as its target human TRAIL (human, UniProt P50591 114-281, limits assumed). As to the kind of experiment: SPR (ProteOn XPR36), target immobilized.
A further assay deals with T3, human TNFβ (human, UniProt P01374 35-205).
T3 construct: the result sentence prints TNF; also called hTNFβ
T3 sequence (looked up): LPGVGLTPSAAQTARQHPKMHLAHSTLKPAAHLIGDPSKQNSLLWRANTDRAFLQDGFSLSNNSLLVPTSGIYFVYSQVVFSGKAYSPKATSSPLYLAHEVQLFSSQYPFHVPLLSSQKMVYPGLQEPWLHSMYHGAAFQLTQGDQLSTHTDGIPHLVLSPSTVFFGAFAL
As to the kind of experiment: SPR (ProteOn XPR36), target immobilized.

Another assay addresses T4, human TL-1A (human, UniProt O95150 72-251).
T4 construct: also called hTL-1A
T4 sequence (looked up): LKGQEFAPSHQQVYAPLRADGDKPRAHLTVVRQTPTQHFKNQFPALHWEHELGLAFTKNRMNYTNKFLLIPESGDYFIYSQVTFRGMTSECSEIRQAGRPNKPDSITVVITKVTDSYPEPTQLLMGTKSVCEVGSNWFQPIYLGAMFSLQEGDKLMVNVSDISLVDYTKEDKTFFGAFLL
Briefly: SPR (ProteOn XPR36), target immobilized.

Another assay deals with T5, human FASL (human, UniProt P48023 134-281, limits assumed).
T5 construct: also called hFASL
T5 sequence (looked up): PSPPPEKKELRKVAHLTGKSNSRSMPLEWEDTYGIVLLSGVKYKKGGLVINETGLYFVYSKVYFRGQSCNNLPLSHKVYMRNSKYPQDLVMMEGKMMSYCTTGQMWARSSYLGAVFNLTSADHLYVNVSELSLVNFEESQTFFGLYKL
As to the kind of experiment: SPR (ProteOn XPR36), target immobilized.

A further assay addresses T6, human IL27 (human, UniProt Q8NEV9 29-243; Q14213 21-229).
T6 sequence (looked up) 1: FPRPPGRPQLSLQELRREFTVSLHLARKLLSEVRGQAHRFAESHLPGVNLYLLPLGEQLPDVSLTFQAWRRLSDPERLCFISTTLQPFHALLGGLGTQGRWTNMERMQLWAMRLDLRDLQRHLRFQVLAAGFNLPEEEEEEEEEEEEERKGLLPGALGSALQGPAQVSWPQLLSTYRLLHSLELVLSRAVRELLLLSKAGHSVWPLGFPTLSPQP
T6 sequence (looked up) 2: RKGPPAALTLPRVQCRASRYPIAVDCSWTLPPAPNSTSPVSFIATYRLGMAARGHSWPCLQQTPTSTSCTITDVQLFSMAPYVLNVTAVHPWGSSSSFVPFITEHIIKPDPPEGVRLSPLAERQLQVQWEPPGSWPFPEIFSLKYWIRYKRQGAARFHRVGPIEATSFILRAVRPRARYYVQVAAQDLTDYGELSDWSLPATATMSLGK
Briefly: SPR (ProteOn XPR36), target immobilized.

The target in another assay is T7, human oncostatin M (human, UniProt P13725 26-221, limits assumed).
T7 construct: also called OSM
T7 sequence (looked up): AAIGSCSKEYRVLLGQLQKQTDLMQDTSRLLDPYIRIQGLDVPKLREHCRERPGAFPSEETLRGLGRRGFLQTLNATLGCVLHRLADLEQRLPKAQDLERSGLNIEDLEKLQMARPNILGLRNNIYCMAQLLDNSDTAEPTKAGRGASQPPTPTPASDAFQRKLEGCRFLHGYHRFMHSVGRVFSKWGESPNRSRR
As to the kind of experiment: SPR (ProteOn XPR36), target immobilized.

Assay [1] addresses T8, human membrane TNFα expressed on HEK293H cells (human, UniProt P01375 1-233).
T8 construct: whole, on cells; also called membrane expressed TNFα
Briefly: flow cytometry, HEK293H cells expressing human membrane TNFα, with 30 µM HSA, 24 h. The protocol: Briefly, cells were fixed with 4% paraformaldehyde and 0.1% glutaraldehyde in PBS (to increase detection of membrane bound TNFα). […] Cells were washed 3 times and subsequently incubated with an anti-VHH mAb (ABH00119) for 30 min at 4° C., washed again, and incubated for 30 min at 4° C. with a goat anti-mouse or anti-human PE labeled antibody. Samples were washed and resuspended in FACS Buffer (D-PBS with 10% FBS and 0.05% sodium azide supplemented with 5 nM TOPRO3). Cell suspensions were then analyzed on an iQuescreener. EC50 values were calculated using GraphPad Prism.

Assay [2] concerns the target T9, cyno IL-6 (cynomolgus monkey, UniProt P79341 28-212, limits assumed).
T9 sequence (looked up): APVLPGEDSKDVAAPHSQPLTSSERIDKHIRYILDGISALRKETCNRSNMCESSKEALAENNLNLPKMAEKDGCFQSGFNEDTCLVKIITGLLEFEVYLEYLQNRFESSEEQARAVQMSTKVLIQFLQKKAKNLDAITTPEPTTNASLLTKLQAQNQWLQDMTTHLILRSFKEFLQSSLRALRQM
Briefly: cell-based or functional assay.

In assay [3] the target is T10, human TNF-α (human, UniProt P01375 77-233). As to the kind of experiment: cell-based or functional assay.
T10 sequence (P01375 77-233 limits assumed): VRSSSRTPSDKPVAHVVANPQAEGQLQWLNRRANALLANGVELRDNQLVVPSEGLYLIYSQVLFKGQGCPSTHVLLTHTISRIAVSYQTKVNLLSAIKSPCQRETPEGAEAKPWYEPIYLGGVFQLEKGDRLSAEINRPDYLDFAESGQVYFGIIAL
Assay [4] concerns the target T11, cyno TNF-α (cynomolgus monkey, UniProt P79337 77-233). As to the kind of experiment: cell-based or functional assay.
In another assay the target is human IL-6 (human, UniProt P05231 30-212). Briefly: cell-based or functional assay.
Assay [5] has as its target T9, cyno IL-6. As to the kind of experiment: cell-based or functional assay. The source holds these as a separate data set.
In assay [6] the target is T10, human TNF-α. Briefly: cell-based or functional assay. The source holds these as a separate data set.
For assay [7], the target named is T11, cyno TNF-α. Briefly: cell-based or functional assay. This is another data set of the same source.

T8 sequence (P01375 whole entry): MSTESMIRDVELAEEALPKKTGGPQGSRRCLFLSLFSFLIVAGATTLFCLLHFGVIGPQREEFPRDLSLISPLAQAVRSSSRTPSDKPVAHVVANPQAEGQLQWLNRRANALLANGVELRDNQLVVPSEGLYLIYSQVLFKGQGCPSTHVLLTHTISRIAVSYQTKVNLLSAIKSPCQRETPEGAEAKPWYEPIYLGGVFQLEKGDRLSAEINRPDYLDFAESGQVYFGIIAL
T11 sequence (P79337 77-233 limits assumed): as the sequence (P01375 77-233 limits assumed) above, with L37V, R44T, T72N, R138L counted along it
human TRAIL, sequence (P50591 114-281 limits assumed): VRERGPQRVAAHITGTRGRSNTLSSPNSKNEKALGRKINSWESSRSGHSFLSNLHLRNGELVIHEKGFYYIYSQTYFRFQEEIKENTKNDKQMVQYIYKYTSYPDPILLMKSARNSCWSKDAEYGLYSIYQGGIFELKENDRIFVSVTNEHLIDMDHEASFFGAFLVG
T2 sequence (O43557 74-240 limits assumed): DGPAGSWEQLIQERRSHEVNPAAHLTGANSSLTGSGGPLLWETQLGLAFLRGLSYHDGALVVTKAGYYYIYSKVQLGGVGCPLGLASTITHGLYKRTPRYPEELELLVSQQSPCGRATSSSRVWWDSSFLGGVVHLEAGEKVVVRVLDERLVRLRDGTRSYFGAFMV

B1: F027201062 (bispecific antibody)
chain: DVQLVESGGGVVQPGGSLRLSCAASGRTFSNYAMAWFRQAPGKEREFVAVISYAGGRTYYADSVKGRFTISRDNAKNTVYLQMNSLRPEDTALYYCAAVDSPLIATHPRGYDYWGQGTLVTVSSGGGGSGGGSEVQLVESGGGVVQPGGSLRLSCAASGFTFRSFGMSWVRQAPGKGPEWVSSISGSGSDTLYADSVKGRFTISRDNSKNTLYLQMNSLRPEDTALYYCTIGGSLSRSSQGTLVTVSSGGGGSGGGSEVQLVESGGGVVQPGGSLRLSCAASGFTLAYYAIGWFRQAPGKEREGVSCISGSVGTTYYADSVKGRFTISRDNAKNTVYLQMNSLRPEDTALYYCVRSSWFDCGVQGRDLGNEYDYRGQGTLVTVSSGGGGSGGGSEVQLVESGGGVVQPGGSLRLSCTASGFTFSTADMGWFRQAPGKGREFVARISGIDGTTYYDEPVKGRFTISRDNSKNTVYLQMNSLRPEDTALYYCRSPRYADQWSAYDYWGQGTLVKVSSA
notes: anti-IL-6 (17C04, 6B12), anti-HSA (ALB23002), anti-TNF-α (6C11), C-terminal alanine; produced in Pichia pastoris; also called ISVD construct F027201062; Nanobody F027201062
For the molecule B1, the binding result with human RANKL, in the assay with human LIGHT, in the assay with human TRAIL, with human TNFβ, with human TL-1A and with human FASL was “no binding (tested: 300 nM)” in each case. For the same molecule, the binding result with human IL27 and in the assay with human oncostatin M was “no binding (tested: 300 nM)” each time. In assay [1], the 50% effective concentration (EC50) was 0.31 nM and 0.29 nM and 0.36 nM. Besides, the “IC50, IL-6 induced TF-1 proliferation” value with cyno IL-6 [2] is 0.0646 nM and 0.0592 nM and 0.0434 nM. Besides, the “IC50 hTNF-α Nfkb assay” value with human TNF-α [3] worked out at 0.0978 nM. In addition, the “Ratio IC50 cyno TNFα/hTNFα” value with cyno TNF-α [4] stood at 2 ratio. Besides, the “IC50 hIL-6 TF1 proliferation assay” value with human IL-6 worked out at 0.134 nM. For the same molecule, in the assay with cyno IL-6 [5], the “Ratio IC50 cyno IL-6/hIL-6” value turned out to be 0.5 ratio. For the same molecule, the “IC50, HEK293_NFκB-NLucP reporter assay” value in the assay with human TNF-α [6] was 0.0757 nM and 0.0257 nM and 0.0586 nM; with cyno TNF-α [7], 0.16 nM and 0.0837 nM and 0.23 nM.
